Results reported in paper PMC7955166, “Structural Basis of CYRI-B Direct Competition with Scar/WAVE Complex for Rac1” (Structure(London, England:1993), 2021).

Key:
[1] = target: the molecule itself; assay: crystal structure; CYRI-BΔN alone, selenomethionine SAD, 2.37Å, two molecules in the asymmetric unit; crystals at 291K, 0.1M carboxylic acid, 8% MPD_P1K_P33, 0.1M MOPS/HEPES-Na pH 8.0
[2] = target: Rac1Q61L (human, UniProt P63000 1-192, Q61L); assay: SPR; Biacore T200; anti-MBP antibody coupled on a CM5 chip; MBP-CYRI-BΔN captured (~800 RU) on flow-cell 2, MBP (400 RU) on flow-cell 1; Rac1Q61L 0.625μM-80μM as analyte; settings: both partners purified

| Binder | binding result [1] | Kd [2] [µM] |
| --- | --- | --- |
| mouse CYRI-B residues 26-324 (CYRI-BΔN) (domain or fragment, UniProt Q921M7 26-324, looked up, selenomethionine labelled, CYRI-B (Fam49B), mouse, residues 26-324 (entire DUF1394 domain; N-terminal residues 1-25 truncated); Two copies in the asymmetric unit of PDB 7AJL; also called Fam49B; source: E. coli B834 (DE3), selenomethionine labelled, purified (HisTrap, TEV, HisTrap flow-through, Superdex S200); not shown: His10, N-terminal, cleaved; MBP, N-terminal, cleaved) AQPTESEKEIYNQVNVVLKDAEGILEDLQSYRGAGHEIREAIQHPADEKLQEKAWGAVVPLVGKLKKFYEFSQRLEAALRGLLGALTSTPYSPTQHLEREQALAKQFAEILHFTLRFDELKMTNPAIQNDFSYYRRTLSRMRINNVPAEGENEVNNELANRMSLFYAEATPMLKTLSDATTKFVSENKNLPIENTTDCLSTMASVCRVMLETPEYRSRFTNEETVSFCLRVMVGVIILYDHVHPVGAFAKTSKIDMKGCIKVLKDQPPNSVEGLLNALRYTTKHLNDETTSKQIRSMLQ | binds |  |
| MBP-CYRI-BΔN (domain or fragment, The purification of the uncleaved MBP fusion used for SPR is not described; source: E. coli BL21 pLysS; not shown: His10, N-terminal, kept; MBP, N-terminal, kept) AQPTESEKEIYNQVNVVLKDAEGILEDLQSYRGAGHEIREAIQHPADEKLQEKAWGAVVPLVGKLKKFYEFSQRLEAALRGLLGALTSTPYSPTQHLEREQALAKQFAEILHFTLRFDELKMTNPAIQNDFSYYRRTLSRMRINNVPAEGENEVNNELANRMSLFYAEATPMLKTLSDATTKFVSENKNLPIENTTDCLSTMASVCRVMLETPEYRSRFTNEETVSFCLRVMVGVIILYDHVHPVGAFAKTSKIDMKGCIKVLKDQPPNSVEGLLNALRYTTKHLNDETTSKQIRSMLQ |  | 25 |
